Measurements from patent US20140335096A1 (Eli Lilly, published 2014).

B1: anti-glucagon monoclonal antibody IBA009 (antibody, mouse IgG1, kappa, V domains shown)
VH: QVQLLQPGAELVKPGASVKLSCKASGYNFNDYWLNWVKQRPGQGLEWIGNAYPGWGIINYNEKFKSKVTLTVDTSSSTVYMQLSSLTSDDSAVYYCARDYDNAYWGQGTTVTVSS
VL: NIVMTQSPKSMSMSVGERVTLTCKASENAGTYVAWYQQKPEQSPKLLIYNGSHRYDGVPDRFTGSGSATDFTLTISSVQAEDLADYYCGQSYSYPWTFGGGTKLEMKR
notes: Captured through goat anti-mouse Fc in Biacore; biotin-labelled as capture antibody in the sandwich ELISA; also called capture antibody IBA009; anti-mid region antibody IBA009
B2: anti-glucagon monoclonal antibody IBA032 (antibody, mouse IgG1, kappa, V domains shown)
VH: QVQLQQSGAELVKPGASVKMSCKASGYNFTDYWIHWVKERPGQGLEWIGYFSTHSDYAIINQKFRDKATLTADKSSRLAYMQLSSLTSEDSAIYYCARGGLGLSYWGQGTTVTVSS
VL: DIVMTQAAPSVLVTPGESVSISCRSPKSLVGPMGRTYLYWFLQRPGQSPQLLIYRRNNLAPGVPDRFSGSGSGTAFTLRISRVEAEDVGIYYCMQHLEFPLTFGAGTKLEIKR
notes: Captured through goat anti-mouse Fc in Biacore; ruthenium-labelled as detection antibody in the sandwich ELISA; also called detection/conjugate antibody IBA032; anti-glucagon C-terminal antibody IBA032

Key:
[1] = target: T1, glucagon (1-29) (Homo sapiens); experiment: Biacore SPR, antibody captured by goat anti-mouse Fc, glucagon (1-29) as analyte; KD = koff/kon
T1 construct: Glucagon (1-29), Anaspec 22456, as analyte in Biacore; the listing names Homo sapiens; also called GCG; glucagon peptide
Experimental: (§1) Briefly described, the anti-glucagon monoclonal antibody IBA009 or IBA032, may be dissolved in HBS-EP buffer (150 mM sodium chloride, 3 mM EDTA, 0.005% (w/v) surfactant P-20, and 10 mM N-2-hydroxyethylpiperazine-N′-2-ethanesulfonic acid (HEPES) at pH 7.4; #BR-1001-88). Goat anti-mouse Fc antibody is immobilized on flow cells 1 to 4 of a CMS sensor chip at a level of 4000 response units (RUs) using amine coupling chemistry to capture anti-glucagon antibodies.
(§2) Binding may be evaluated using multiple analytical cycles. Each cycle is performed at a flow rate of 50 μl/minute, and may consist of the following steps: injection of about 10 μl of the anti-glucagon monoclonal antibody IBA009 or IBA032 at 10 μg/ml aiming at a capture of 40-100 RUs, injection of 250 μl of glucagon (1-29) (Anaspec 22456)—(starting at 100 nM and using two-fold serial dilutions for each cycle) followed by 20 minutes for dissociation, and regeneration using about 30 μl of 10 mM glycine hydrochloride, pH 1.5. Association and dissociation rates for each cycle may be evaluated using a “1:1 (Langmuir) binding” model in the BIAevaluation software 4.1.
(§3) The anti-glucagon monoclonal antibodies IBA009 and IBA032 may be tested for binding kinetics to glucagon.

[2] = target: T1, glucagon (1-29); experiment: affinity for glucagon against commercial antibody 2D3-2B11 (Sigma-Aldrich WH0002641M1); method of the reference value not stated
[3] = target: T1, glucagon (1-29); experiment: Biacore SPR, antibody captured by goat anti-mouse Fc, glucagon (1-29) as analyte, 25 C, 1:1 Langmuir model
Experimental: as §1, §2, §3

[4] = target: T1, glucagon (1-29); experiment: affinity for glucagon against commercial antibody K79bB10 (Sigma-Aldrich G2654); method of the reference value not stated

T1 sequence (peptide, as listed by the source): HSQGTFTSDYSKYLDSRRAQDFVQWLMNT

| Binder | Kd [1] [pM] | fold stronger affinity than reference antibody 2D3-2B11 [2] [fold] | koff [3] [s⁻¹] | kon [3] [M⁻¹ s⁻¹] | fold stronger affinity than reference antibody K79bB10 [4] [fold] |
| --- | --- | --- | --- | --- | --- |
| B1 | 0.73 | ~130 | 1.1e-05 | 1.5e+07 |  |
| B2 | 8.7 |  | 0.00024 | 2.7e+07 | ~800 |
